Measurements as given in US20190225680A1 (NASCIENT, published 2019).

Legend:
human TNC rCd4-His-FBG = molecular target: T1, human TNC rCd4-His-FBG (rat; human, UniProt P05540 207-386); assay: HTRF competition, scFv supernatant, competitor d2-labelled B12 IgG, biotinylated human rCd4-His-FBG
T1 construct: domain: domains 3 and 4; Biotinylated in the ELISA and HTRF assays; also called Hu TNC; human TNC FBG
T1 sequence: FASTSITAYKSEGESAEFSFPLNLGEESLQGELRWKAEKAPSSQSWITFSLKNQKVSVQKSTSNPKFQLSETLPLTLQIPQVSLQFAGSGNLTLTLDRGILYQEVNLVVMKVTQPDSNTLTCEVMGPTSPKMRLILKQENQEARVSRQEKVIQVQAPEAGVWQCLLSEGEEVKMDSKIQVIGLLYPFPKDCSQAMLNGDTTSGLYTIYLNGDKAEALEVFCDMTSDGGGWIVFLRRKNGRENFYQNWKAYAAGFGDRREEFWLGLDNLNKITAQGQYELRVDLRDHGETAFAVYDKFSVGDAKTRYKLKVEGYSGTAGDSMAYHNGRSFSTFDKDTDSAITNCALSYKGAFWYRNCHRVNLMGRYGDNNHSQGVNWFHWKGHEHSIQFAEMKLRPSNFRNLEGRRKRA
Experimental: An HTRF-based competition assay was developed to screen for antibody variants with improved binding to human TNC FBG.
All samples and reagents were prepared in assay buffer (50 mM NaPO₄, 0.1% BSA, 0.4 M KF, pH 7.0) at 4× the stated concentration. 5 μl of each reagent was subsequently added to low volume 384-well assay plates (Greiner, 784075) to give a final reaction volume of 20 μl. IgG antibodies were labelled using the d2 labelling kit (CisBio, 62D2DPEA) as directed by the manufacturer. Streptavidin europium cryptate (CisBio, 610SAKLA, Lot#25C) was used at a final concentration of 1.8 ng active moiety (SA) per 20 μl reaction as recommended by the manufacturer. Biotinylated rCd4-His-FBG was prepared using EZ-link Sulfo-NHS-LC-Biotin reagent (Thermo Scientific, 21327) the extent of biotinylation was quantified using biotinylation fluorescence quantitation kit (Thermo Scientific, 46610). Where appropriate, supernatants containing scFv (prepared as described above for ELISA assays) were added to the 384-well assay plate at a final dilution of 1/20 (i.e. 1/5 dilution in assay buffer followed by addition of 5 μl diluted sample to the 20 μl FRET assay). […] Unless otherwise stated, biotinylated rCd4-His-FBG (biotin:protein ratio=1.8:1) was present at either 2.2 nM (in assays using the 2A5 IgG antibody) or 1 nM (in experiments using B12 IgG). Samples were incubated for approximately 1 h at room temperature and the FRET signal was determined using a BMG Pherastar instrument: excitation=320 nm; emission=620 nm and 665 nm; integration start time=60 μs; integration time=500 μs; 100 flashes per well. For competition assays containing culture supernatant, biotinylated rCd4-His-FBG antigen was pre-incubated with streptavidin europium cryptate for 45 min prior to addition of reagents to the assay plate. All FRET signals are presented as ΔR, where R=(E665/E620×104) and ΔR=(Rsample−Rbackground fluorescence).
Culture supernatants containing unlabelled scFv clones from affinity selected mutant libraries were tested for inhibition of the interaction between FBG and the fluorophore-labelled parental IgG antibody.

mouse TNC rCd4-His-FBG = molecular target: T2, mouse TNC rCd4-His-FBG (rat; mouse, UniProt P05540 207-386); assay: anti-FLAG capture DELFIA ELISA, scFv supernatant, biotinylated mouse rCd4-His-FBG
T2 construct: domain: domains 3 and 4; also called Mu TNC; mouse TNC FBG
T2 sequence: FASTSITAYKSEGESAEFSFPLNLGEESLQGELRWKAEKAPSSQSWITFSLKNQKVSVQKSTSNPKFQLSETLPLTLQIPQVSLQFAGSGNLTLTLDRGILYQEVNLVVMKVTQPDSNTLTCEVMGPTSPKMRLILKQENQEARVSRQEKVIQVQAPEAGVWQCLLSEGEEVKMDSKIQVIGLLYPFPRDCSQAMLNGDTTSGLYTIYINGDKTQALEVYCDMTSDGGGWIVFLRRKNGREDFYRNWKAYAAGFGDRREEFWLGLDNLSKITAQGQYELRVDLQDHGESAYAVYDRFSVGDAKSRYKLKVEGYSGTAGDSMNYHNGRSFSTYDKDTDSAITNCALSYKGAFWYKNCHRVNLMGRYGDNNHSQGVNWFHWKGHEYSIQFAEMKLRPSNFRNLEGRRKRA
Experimental: E. coli clones harbouring scFv pSANG10 expression plasmids were induced in 96-well plates with auto-induction media as described previously (Schofield et al, 2007). E. coli supernatants were harvested for ELISA assays. ELISA used the DELFIA (dissociation enhanced lanthanide fluorescent immunoassay) system with Europium-labelled anti-FLAG antibody (Sigma, Aldrich, UK). Black immunosorb plates (Nunc) were coated overnight with anti-FLAG M2 antibody (Sigma, F3165, 5 μg/ml in PBS, 50 μl per well), in wells blocked by the addition of 2% milk powder, PBS (PBS-M, 300 μl per well). Plates were washed three times with PBS-T (PBS, 0.1% Tween-20) and three times with PBS followed by the addition of a 1:2 dilution of 96-well auto-induction culture supernatants containing expressed scFv in PBS-M (50 μl per well). The plates were incubated for 1 h, washed as above and biotinylated mouse or human rCd4-His-FBG (5 μg/ml in PBS-M, 50 μl) added to each well. Plates were incubated for a further 1 h, washed and Strepravidin-Eu added (Perkin Elmer, 1 μg/ml, PBS-M, 50 μl), incubated for 30 min, washed and DELFIA enhancement solution added (50 μl) and plates read on a Perkin Elmer Fusion plate reader (excitation=320 nm, emission 620 nm). The format of the assay is shown in.

Binder | % inhibition of HTRF signal (human TNC rCd4-His-FBG) | fold improvement for mouse FBG binding (against the parent B12) (mouse TNC rCd4-His-FBG)
165_13_D1 scFv (scFv, V domains shown, VH CDR3 GTRGEGDTFDI; not shown: scFv linker, domain order, and the tags of the pSANG10 vector (FLAG and others)) VH: QVQLVESGGGLVQPGRSLRLSCAASGFTFDDYAMHWVRQAPGKGLEWVSGISGSGGSTYYADSVKGRFTISRDNAKNSLYLQMNSLRAEDTALYYCAKGTRGEGDTFDIWGQGTMVTVSS VL: DIQMTQSPASLPTPVGDRVTITCRASQYIQGFLNWYQQKPGKAPKLLIYDASNLETGVPSRFSGSGSGTDFTLTISSLQPEDFATYYCQQSYSTPQTFGQGTKVDIK | 91% | ≥ 4 fold
165_13_A4 scFv (scFv, V domains shown, VH CDR3 DKYPVLDTFDI; not shown: scFv linker, domain order, and the tags of the pSANG10 vector (FLAG and others)) VH: QVQLVESGGGLVQPGRSLRLSCAASGFTFDDYAMHWVRQAPGKGLEWVSGISGSGGSTYYADSVKGRFTISRDNAKNSLYLQMNSLRAEDTALYYCAKDKYPVLDTFDIWGQGTMVTVSS VL: DIQMTQSPASLPTPVGDRVTITCRASQYIQGFLNWYQQKPGKAPKLLIYDASNLETGVPSRFSGSGSGTDFTLTISSLQPEDFATYYCQQSYSTPQTFGQGTKVDIK | 91% | ≥ 4 fold
165_13_B1 scFv (scFv, V domains shown, VH CDR3 VMSSMEDAFDI; not shown: scFv linker, domain order, and the tags of the pSANG10 vector (FLAG and others)) VH: QVQLVESGGGLVQPGRSLRLSCAASGFTFDDYAMHWVRQAPGKGLEWVSGISGSGGSTYYADSVKGRFTISRDNAKNSLYLQMNSLRAEDTALYYCAKVMSSMEDAFDIWGQGTMVTVSS VL: DIQMTQSPASLPTPVGDRVTITCRASQYIQGFLNWYQQKPGKAPKLLIYDASNLETGVPSRFSGSGSGTDFTLTISSLQPEDFATYYCQQSYSTPQTFGQGTKVDIK | 91% | ≥ 4 fold

The remaining lines, values ahead:

% inhibition of HTRF signal (human TNC rCd4-His-FBG) | fold improvement for mouse FBG binding (against the parent B12) (mouse TNC rCd4-His-FBG) | Binder
91% | ≥ 4 fold | 165_13_C3 scFv (scFv, V domains shown, VH CDR3 SYQSDEDAFDI; Antibody C3 of the B12 family; not shown: scFv linker, domain order, and the tags of the pSANG10 vector (FLAG and others)) VH: QVQLVESGGGLVQPGRSLRLSCAASGFTFDDYAMHWVRQAPGKGLEWVSGISGSGGSTYYADSVKGRFTISRDNAKNSLYLQMNSLRAEDTALYYCAKSYQSDEDAFDIWGQGTMVTVSS VL: DIQMTQSPASLPTPVGDRVTITCRASQYIQGFLNWYQQKPGKAPKLLIYDASNLETGVPSRFSGSGSGTDFTLTISSLQPEDFATYYCQQSYSTPQTFGQGTKVDIK
91% | ≥ 4 fold | 165_13_B3 scFv (scFv, V domains shown, not shown: small tags and cut ends, VH CDR3 ALARGHDTFDI) VH: QVQLVESGGGLVQPGRSLRLSCAASGFTFDDYAMHWVRQAPGKGLEWVSGISGSGGSTYYADSVKGRFTISRDNAKNSLYLQMNSLRAEDTALYYCAKALARGHDTFDIWGQGTMVTVSS VL: DIQMTQSPASLPTPVGDRVTITCRASQYIQGFLNWYQQKPGKAPKLLIYDASNLETGVPSRFSGSGSGTDFTLTISSLQPEDFATYYCQQSYSTPQTFGQGTKVDIK
91% | ≥ 4 fold | 165_13_D4 scFv (scFv, V domains shown, VH CDR3 GTVGEGDTFDI; not shown: scFv linker, domain order, and the tags of the pSANG10 vector (FLAG and others)) VH: QVQLVESGGGLVQPGRSLRLSCAASGFTFDDYAMHWVRQAPGKGLEWVSGISGSGGSTYYADSVKGRFTISRDNAKNSLYLQMNSLRAEDTALYYCAKGTVGEGDTFDIWGQGTMVTVSS VL: DIQMTQSPASLPTPVGDRVTITCRASQYIQGFLNWYQQKPGKAPKLLIYDASNLETGVPSRFSGSGSGTDFTLTISSLQPEDFATYYCQQSYSTPQTFGQGTKVDIK
91% | ≥ 4 fold | 165_13_B6 scFv (scFv, V domains shown, VH CDR3 GQKGEGDTFDI; not shown: scFv linker, domain order, and the tags of the pSANG10 vector (FLAG and others)) VH: QVQLVESGGGLVQPGRSLRLSCAASGFTFDDYAMHWVRQAPGKGLEWVSGISGSGGSTYYADSVKGRFTISRDNAKNSLYLQMNSLRAEDTALYYCAKGQKGEGDTFDIWGQGTMVTVSS VL: DIQMTQSPASLPTPVGDRVTITCRASQYIQGFLNWYQQKPGKAPKLLIYDASNLETGVPSRFSGSGSGTDFTLTISSLQPEDFATYYCQQSYSTPQTFGQGTKVDIK
